In article PMC2756588:

T1: Cyk3, Q07533
T1 sequence (Q07533 1-83, looked up): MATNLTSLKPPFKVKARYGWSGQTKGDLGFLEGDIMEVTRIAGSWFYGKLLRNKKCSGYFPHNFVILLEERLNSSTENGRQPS

T2: Fus1, P11710
T2 sequence (P11710 432-512, looked up): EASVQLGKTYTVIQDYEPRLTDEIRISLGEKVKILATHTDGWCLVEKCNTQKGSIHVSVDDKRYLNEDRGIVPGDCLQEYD

T3: Bzz1-1, P38822
T3 sequence (P38822 478-572, looked up): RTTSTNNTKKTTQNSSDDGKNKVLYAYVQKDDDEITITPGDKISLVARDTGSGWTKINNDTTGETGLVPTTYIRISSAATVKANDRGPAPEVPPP

T4: Boi1, P38041
T4 sequence (P38041 1-86, looked up): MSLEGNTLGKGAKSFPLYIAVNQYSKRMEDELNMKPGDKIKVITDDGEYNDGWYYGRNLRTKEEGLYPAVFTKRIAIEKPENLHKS

T5: Lsb4, P32793
T5 sequence (P32793 402-468, looked up): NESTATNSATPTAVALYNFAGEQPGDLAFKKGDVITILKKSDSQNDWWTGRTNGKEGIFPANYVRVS

T6: Nbp2, Q12163
T6 sequence (Q12163 103-180, looked up): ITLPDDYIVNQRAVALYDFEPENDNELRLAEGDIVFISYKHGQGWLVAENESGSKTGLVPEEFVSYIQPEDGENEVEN

T7: Sla1-2, P32790
T7 sequence (P32790 60-140, looked up): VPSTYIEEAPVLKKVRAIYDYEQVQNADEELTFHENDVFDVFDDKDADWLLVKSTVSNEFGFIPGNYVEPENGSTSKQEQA

T8: Sla1-3, P32790
T8 sequence (P32790 344-424, looked up): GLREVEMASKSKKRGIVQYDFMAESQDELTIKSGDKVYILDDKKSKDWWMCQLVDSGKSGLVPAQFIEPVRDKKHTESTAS

T9: Abp1, P15891
T9 sequence (P15891 535-592, looked up): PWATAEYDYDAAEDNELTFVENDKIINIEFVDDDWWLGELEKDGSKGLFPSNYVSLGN

T10: Pin3, Q06449
T10 sequence (Q06449 53-122, looked up): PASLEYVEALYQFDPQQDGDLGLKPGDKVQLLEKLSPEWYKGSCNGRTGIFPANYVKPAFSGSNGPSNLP

T11: Hse1, P38753
T11 sequence (P38753 208-285, looked up): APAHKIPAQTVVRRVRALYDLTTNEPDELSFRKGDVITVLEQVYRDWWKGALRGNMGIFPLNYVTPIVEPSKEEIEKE

T12: Hof1, Q05080
T12 sequence (Q05080 590-669, looked up): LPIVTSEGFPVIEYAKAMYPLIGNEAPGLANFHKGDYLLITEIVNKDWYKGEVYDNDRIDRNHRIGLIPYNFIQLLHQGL

T13: Bzz1-2, P38822
T13 sequence (P38822 568-633, looked up): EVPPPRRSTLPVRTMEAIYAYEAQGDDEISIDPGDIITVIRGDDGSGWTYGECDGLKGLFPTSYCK

T14: Pex13, P80667
T14 sequence (P80667 295-386, looked up): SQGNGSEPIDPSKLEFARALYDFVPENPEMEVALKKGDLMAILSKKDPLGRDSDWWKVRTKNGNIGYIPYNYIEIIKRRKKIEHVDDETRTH

T15: Bud14, P27637
T15 sequence (P27637 247-328, looked up): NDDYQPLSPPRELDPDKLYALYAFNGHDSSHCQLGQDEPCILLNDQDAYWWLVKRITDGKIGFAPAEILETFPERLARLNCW

T16: Lsb3, P43603
T16 sequence (P43603 385-451, looked up): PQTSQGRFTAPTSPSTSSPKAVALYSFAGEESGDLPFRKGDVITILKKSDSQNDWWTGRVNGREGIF

T17: Myo5, Q04439
T17 sequence (Q04439 1072-1160, looked up): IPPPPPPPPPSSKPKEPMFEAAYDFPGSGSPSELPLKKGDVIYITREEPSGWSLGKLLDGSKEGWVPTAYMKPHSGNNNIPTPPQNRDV

T18: Lsb1, P53281
T18 sequence (P53281 45-122, looked up): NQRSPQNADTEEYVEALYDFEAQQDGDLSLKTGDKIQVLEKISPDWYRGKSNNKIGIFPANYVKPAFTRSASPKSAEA

T19: Boi2, P39969
T19 sequence (P39969 32-116, looked up): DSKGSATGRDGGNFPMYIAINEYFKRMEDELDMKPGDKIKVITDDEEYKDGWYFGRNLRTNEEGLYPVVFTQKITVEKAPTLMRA

T20: Cdc25, P04821
T20 sequence (P04821 50-136, looked up): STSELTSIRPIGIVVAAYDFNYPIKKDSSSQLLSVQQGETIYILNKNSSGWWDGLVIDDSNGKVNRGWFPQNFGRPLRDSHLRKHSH

T21: Bbc1, P47068
T21 sequence (P47068 1-78, looked up): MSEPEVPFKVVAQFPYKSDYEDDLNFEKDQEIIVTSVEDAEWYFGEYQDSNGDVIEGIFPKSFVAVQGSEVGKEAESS

B1: unnamed (peptide)
chain: VDFTLPPPPPPPGLD
B2: unnamed (peptide)
chain: DFTLPPPPPPPGLDE
B3: unnamed (peptide)
chain: FTLPPPPPPPGLDEL
B4: unnamed (peptide)
chain: DLPLPDLPPEPPTEL
B5: unnamed (peptide)
chain: VPPPMQPPPIESSNL
B6: unnamed (peptide)
chain: MFLISPPASPPPEFD

These binders were tested against T1, Cyk3, Q07533 (assay: SPOT array). Details: median of control spots 1451.

Binder	SPOT intensity
B1	0
B2	0
B3	2
B4	0
B5	1
B6	1

What follows are binders tested against T2, Fus1, P11710 (assay: SPOT array). Details: median of control spots 1200.

Binder	SPOT intensity
B1	0
B2	0
B3	0
B4	0
B5	1
B6	0

The binders below were run against T3, Bzz1-1, P38822 (assay: SPOT array). Details: median of control spots 4446.

Binder	SPOT intensity
B1	1
B2	0
B3	7
B4	0
B5	0
B6	0

The binders below were run against T4, Boi1, P38041 (assay: SPOT array). Details: median of control spots 1162.

Binder	SPOT intensity
B1	2
B2	0
B3	0
B4	2
B5	1
B6	2

These binders were tested against T5, Lsb4, P32793 (assay: SPOT array). Details: median of control spots 397.

Binder	SPOT intensity
B1	0
B2	0
B3	0
B4	0
B5	48
B6	0

Each binder was assayed against T6, Nbp2, Q12163 (assay: SPOT array). Details: median of control spots 357.

Binder	SPOT intensity
B1	0
B2	3
B3	0
B4	0
B5	6
B6	0

Each binder was assayed against T7, Sla1-2, P32790 (assay: SPOT array). Details: median of control spots 712.

Binder	SPOT intensity
B1	1
B2	0
B3	0
B4	0
B5	2
B6	0

The binders below were run against Bem1-2, P29366 (assay: SPOT array). Details: median of control spots 4347.
Chain of Bem1-2, P29366 (P29366 139-227): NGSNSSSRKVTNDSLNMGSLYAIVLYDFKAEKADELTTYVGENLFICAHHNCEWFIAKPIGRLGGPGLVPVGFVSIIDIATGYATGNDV

Binder	SPOT intensity
B1	0
B2	1
B3	0
B4	0
B5	0
B6	0

Each binder was assayed against T8, Sla1-3, P32790 (assay: SPOT array). Details: median of control spots 5475.

Binder	SPOT intensity
B1	0
B2	0
B3	0
B4	0
B5	0
B6	0

What follows are binders tested against Rvs167, P39743 (assay: SPOT array). Details: median of control spots 2707.
Chain of Rvs167, P39743 (P39743 419-482): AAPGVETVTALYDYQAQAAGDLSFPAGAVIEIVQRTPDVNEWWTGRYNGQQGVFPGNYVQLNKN

Binder	SPOT intensity
B1	0
B2	0
B3	0
B4	0
B5	0
B6	0

These binders were tested against T9, Abp1, P15891 (assay: SPOT array). Details: median of control spots 935.

Binder	SPOT intensity
B1	0
B2	0
B3	0
B4	0
B5	85
B6	0

These binders were tested against T10, Pin3, Q06449 (assay: SPOT array). Details: median of control spots 2171.

Binder	SPOT intensity
B1	0
B2	0
B3	0
B4	0
B5	114
B6	65

These binders were tested against T11, Hse1, P38753 (assay: SPOT array). Details: median of control spots 1727.

Binder	SPOT intensity
B1	0
B2	0
B3	0
B4	0
B5	0
B6	0

These binders were tested against T12, Hof1, Q05080 (assay: SPOT array). Details: median of control spots 4086.

Binder	SPOT intensity
B1	143
B2	6
B3	116
B4	566
B5	0
B6	1

Each binder was assayed against T13, Bzz1-2, P38822 (assay: SPOT array). Details: median of control spots 4538.

Binder	SPOT intensity
B1	1
B2	0
B3	0
B4	0
B5	0
B6	0

These binders were tested against T14, Pex13, P80667 (assay: SPOT array). Details: median of control spots 1341.

Binder	SPOT intensity
B1	2
B2	0
B3	13
B4	0
B5	27
B6	12

What follows are binders tested against T15, Bud14, P27637 (assay: SPOT array). Details: median of control spots 956.

Binder	SPOT intensity
B1	0
B2	0
B3	0
B4	0
B5	0
B6	0

These binders were tested against T16, Lsb3, P43603 (assay: SPOT array). Details: median of control spots 406.

Binder	SPOT intensity
B1	0
B2	0
B3	0
B4	0
B5	0
B6	0

These binders were tested against GST (assay: SPOT array). Details: median of control spots 978.

Binder	SPOT intensity
B1	0
B2	1
B3	1
B4	1
B5	0
B6	0

Each binder was assayed against T17, Myo5, Q04439 (assay: SPOT array). Details: median of control spots 471.

Binder	SPOT intensity
B1	367
B2	306
B3	234
B4	101
B5	167
B6	219

Each binder was assayed against Bem1-1, P29366 (assay: SPOT array). Details: median of control spots 4282.
Chain of Bem1-1, P29366 (P29366 55-141): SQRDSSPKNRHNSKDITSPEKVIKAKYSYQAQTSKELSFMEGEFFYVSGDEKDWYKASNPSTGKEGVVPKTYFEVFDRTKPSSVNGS

Binder	SPOT intensity
B1	0
B2	0
B3	0
B4	3
B5	0
B6	0

What follows are binders tested against Sho1, P40073 (assay: SPOT array). Details: median of control spots 1148.
Chain of Sho1, P40073 (P40073 287-367): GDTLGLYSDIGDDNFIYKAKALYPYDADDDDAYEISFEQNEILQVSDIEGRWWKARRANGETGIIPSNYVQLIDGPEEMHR

Binder	SPOT intensity
B1	0
B2	0
B3	0
B4	0
B5	0
B6	0

The binders below were run against T18, Lsb1, P53281 (assay: SPOT array). Details: median of control spots 388.

Binder	SPOT intensity
B1	0
B2	0
B3	0
B4	0
B5	99
B6	0

These binders were tested against T19, Boi2, P39969 (assay: SPOT array). Details: median of control spots 1161.

Binder	SPOT intensity
B1	0
B2	0
B3	0
B4	1
B5	0
B6	0

What follows are binders tested against Myo3, P36006 (assay: SPOT array). Details: median of control spots 468.

Binder	SPOT intensity
B1	491
B2	345
B3	455
B4	262
B5	318
B6	326

The binders below were run against T20, Cdc25, P04821 (assay: SPOT array). Details: median of control spots 969.

Binder	SPOT intensity
B1	0
B2	0
B3	0
B4	2
B5	0
B6	2

What follows are binders tested against T21, Bbc1, P47068 (assay: SPOT array). Details: median of control spots 796.

Binder	SPOT intensity
B1	0
B2	0
B3	0
B4	0
B5	0
B6	0
